The values that follow come from patent US20210115137A1 (NATIONAL UNIVERSITY CORPORATION HOKKAIDO UNIVERSITY, published 2021).

This assay addresses T1, extracellular domain of mouse PIR-B (Domains 1 to 6), biotinylated (mouse, UniProt P97484 25-642, biotinylated with BirA (site not stated)).
T1 construct: The full-length protein is cited as NCBI NM_011095; also called Paired-Immunoglobulin-like Receptor B; PIR-B (extracellular domain)
T1 sequence: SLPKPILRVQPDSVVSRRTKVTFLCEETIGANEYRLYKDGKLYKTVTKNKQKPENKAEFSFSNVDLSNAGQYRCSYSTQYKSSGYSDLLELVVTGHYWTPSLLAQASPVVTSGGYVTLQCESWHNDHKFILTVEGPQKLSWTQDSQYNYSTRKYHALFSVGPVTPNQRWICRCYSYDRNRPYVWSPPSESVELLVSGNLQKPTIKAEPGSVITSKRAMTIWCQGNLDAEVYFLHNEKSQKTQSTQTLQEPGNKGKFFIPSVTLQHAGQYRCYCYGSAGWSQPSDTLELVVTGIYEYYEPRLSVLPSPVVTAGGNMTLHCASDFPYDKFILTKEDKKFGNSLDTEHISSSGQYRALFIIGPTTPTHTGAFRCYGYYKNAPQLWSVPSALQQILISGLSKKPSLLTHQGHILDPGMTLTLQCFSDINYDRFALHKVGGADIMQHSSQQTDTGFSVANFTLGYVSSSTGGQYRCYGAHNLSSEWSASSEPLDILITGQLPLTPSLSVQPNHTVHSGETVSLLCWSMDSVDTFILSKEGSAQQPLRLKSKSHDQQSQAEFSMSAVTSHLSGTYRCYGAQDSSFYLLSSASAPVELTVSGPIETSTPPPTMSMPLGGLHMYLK
The assay can be described thus: SPR (BIAcore 3000), biotinylated PIR-B extracellular domain on streptavidin chip, HLA-G2 0.10-1.56 µM as analyte, 1:1 binding model. The procedure: Using BIAcore® 3000 (GE healthcare BIAcore), the affinity between HLA-G2 and the extracellular domain of PIR-B prepared as described above was determined in a surface plasmon resonance experiment. Streptavidin was first covalently fixed on a research grade sensor chip, and then the biotinylated extracellular domain of PIR-B or BSA as a negative control was fixed via the streptavidin. Then, a solution of HLA-G [α1-3] dimer in HBS-EP running buffer (10 mM HEPES pH7.5, 150 mM sodium chloride, 3.4 mM EDTA, 0.005% Surfactant P20) was run at 5 μL/min. Kinetics analysis of binding response was performed at various concentrations by subtracting the response measured in a control flow cell from the response measured in a sample flow cell. BIAevaluation version 4.1.1 (GE Healthcare) was used in the analysis.

By Kd is commonly meant a measure of binding affinity in units of concentration. Read a high Kd as weaker binding.

B1: HLA-G2 (HLA-G [α1-3] dimer; complex of the α1 and α3 domains of the HLA-G molecule) (ligand)
chain: GSHSMRYFSAAVSRPGRGEPRFIAMGYVDDTQFVRFDSDSACPRMEPRAPWVEQEGPEYWEEETRNTKAHAQTDRMNLQTLRGYYNQSEANPPKTHVTHHPVFDYEATLRCWALGFYPAEIILTWQRDGEDQTQDVELVETRPAGDGTFQKWAAVVVPSGEEQRYTCHVQHEGLPEPLMLRW
notes: It was run in SPR as 'HLA-G [α1-3] dimer'; also called α1-3 complex
The molecule B1 yielded a Kd of 142 nM.
